Measured values as given in paper PMC13598225, “Alternative splicing of synaptotagmin 7 regulates oligomerization and short-term synaptic plasticity” (Proceedings of the National Academy of Sciences of the …, 2026).

Target: T1, α-syt7cyto immobilised for HaloTag pull-down (UniProt Q9R0N7-1 38-403)
T1 construct: synaptotagmin 7, α splice variant, cytoplasmic domain; The sentence on syt1-fl says only 'immobilized syt7'; also called immobilized syt7
Test: pull-down; HaloTag pull-down; syt7 immobilised; syt1-fl reconstituted into liposomes; Ca2+ against EGTA
Settings: both partners purified

T1 sequence (Q9R0N7 38-403): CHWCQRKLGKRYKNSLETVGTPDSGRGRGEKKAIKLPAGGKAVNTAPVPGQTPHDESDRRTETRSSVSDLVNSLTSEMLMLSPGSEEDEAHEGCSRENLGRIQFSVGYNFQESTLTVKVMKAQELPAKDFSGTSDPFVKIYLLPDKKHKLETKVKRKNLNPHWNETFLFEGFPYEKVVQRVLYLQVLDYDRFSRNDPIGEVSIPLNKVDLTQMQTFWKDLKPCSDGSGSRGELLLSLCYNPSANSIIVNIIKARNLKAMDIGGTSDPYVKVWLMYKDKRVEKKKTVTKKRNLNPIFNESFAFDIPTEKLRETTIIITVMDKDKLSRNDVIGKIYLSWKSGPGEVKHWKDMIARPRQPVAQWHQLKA

B1: syt1-fl reconstituted into liposomes (full-length synaptotagmin 1) (natural protein, UniProt P21707 1-421, looked up)
chain: MVSASHPEALAAPVTTVATLVPHNATEPASPGEGKEDAFSKLKQKFMNELHKIPLPPWALIAIAIVAVLLVVTCCFCVCKKCLFKKKNKKKGKEKGGKNAINMKDVKDLGKTMKDQALKDDDAETGLTDGEEKEEPKEEEKLGKLQYSLDYDFQNNQLLVGIIQAAELPALDMGGTSDPYVKVFLLPDKKKKFETKVHRKTLNPVFNEQFTFKVPYSELGGKTLVMAVYDFDRFSKHDIIGEFKVPMNTVDFGHVTEEWRDLQSAEKEEQEKLGDICFSLRYVPTAGKLTVVILEAKNLKKMDVGGLSDPYVKIHLMQNGKRLKKKKTTIKKNTLNPYYNESFSFEVPFEQIQKVQVVVTVLDYDKIGKNDAIGKVFVGYNSTGAELRHWSDMLANPRRPIAQWHTLQVEEEVDAMLAVKK
notes: synaptotagmin 1, full length (fl); Construct and host are in SI Appendix; source: reconstituted into liposomes
- binding in Ca2+ relative to EGTA (ratio): 1.46 ± 0.15
